Results from patent publication US20160271142A1 (CELLERANT THERAPEUTICS, published 2016).

What was measured:
[1] = target: T1, C type Lectin Like molecule 1 (CLL-1), on human cell lines (human, UniProt Q5QGZ9 1-265); experiment: mean fluorescent intensity of ADC binding to U937 cells, relative to control C0-CLT-D202 ADC; CLL-1 status of this line not stated
T1 construct: whole, on cells; The target was presented on cells, either endogenously (HL-60, AML-5) or in over-expressing lines (TF1-CLL1, HEL92.1.7-CLL1); also called CLEC12A; DCAL-2
T1 sequence (looked up): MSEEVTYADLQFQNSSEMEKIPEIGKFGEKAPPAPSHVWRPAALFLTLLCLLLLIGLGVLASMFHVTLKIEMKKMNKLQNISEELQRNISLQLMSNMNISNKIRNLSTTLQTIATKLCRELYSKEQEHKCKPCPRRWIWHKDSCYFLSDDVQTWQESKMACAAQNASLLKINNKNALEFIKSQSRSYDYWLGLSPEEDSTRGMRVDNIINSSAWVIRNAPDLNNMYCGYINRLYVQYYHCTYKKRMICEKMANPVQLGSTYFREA

[2] = target: T1, C type Lectin Like molecule 1 (CLL-1), …; experiment: cell-based or functional assay
[3] = target: T1, C type Lectin Like molecule 1 (CLL-1), …; experiment: mean fluorescent intensity of ADC binding to HNT-34 cells, relative to control C0-CLT-D202 ADC; CLL-1 status of this line not stated
[4] = target: T1, C type Lectin Like molecule 1 (CLL-1), …; experiment: mean fluorescent intensity of ADC binding to PL21 cells, relative to control C0-CLT-D202 ADC; CLL-1 status of this line not stated
[5] = target: T1, C type Lectin Like molecule 1 (CLL-1), …; experiment: mean fluorescent intensity of ADC binding to HEL92.1.7-CLL1 cells, relative to control C0-CLT-D202 ADC
[6] = target: T1, C type Lectin Like molecule 1 (CLL-1), …; experiment: mean fluorescent intensity of ADC binding to AML2 cells, relative to control C0-CLT-D202 ADC; CLL-1 status of this line not stated
[7] = target: T1, C type Lectin Like molecule 1 (CLL-1), …; experiment: mean fluorescent intensity of ADC binding to SHI-1 cells, relative to control C0-CLT-D202 ADC; CLL-1 status of this line not stated
[8] = target: T1, C type Lectin Like molecule 1 (CLL-1), …; experiment: mean fluorescent intensity of ADC binding to KG-1a cells, relative to control C0-CLT-D202 ADC; CLL-1 status of this line not stated
[9] = target: T1, C type Lectin Like molecule 1 (CLL-1), …; experiment: mean fluorescent intensity of ADC binding to parental HEL92.1.7 cells, relative to control C0-CLT-D202 ADC; CLL-1 status of this line not stated
[10] = target: T1, C type Lectin Like molecule 1 (CLL-1), …; experiment: cell-based or functional assay; remark: listed apart in the source
[11] = target: T1, C type Lectin Like molecule 1 (CLL-1), …; experiment: mean fluorescent intensity of ADC binding to HL-60 cells (express CLL-1), relative to control C0-CLT-D202 ADC
[12] = target: T1, C type Lectin Like molecule 1 (CLL-1), …; experiment: mean fluorescent intensity of ADC binding to AML5 cells (express CLL-1), relative to control C0-CLT-D202 ADC
[13] = target: T1, C type Lectin Like molecule 1 (CLL-1), …; experiment: mean fluorescent intensity of ADC binding to EOL-1 cells, relative to control C0-CLT-D202 ADC; CLL-1 status of this line not stated
[14] = target: T1, C type Lectin Like molecule 1 (CLL-1), …; experiment: mean fluorescent intensity of ADC binding to 293 cells, relative to control C0-CLT-D202 ADC; CLL-1 status of this line not stated
[15] = target: T1, C type Lectin Like molecule 1 (CLL-1), …; experiment: cell-based or functional assay; remark: listed apart in the source

B1: C6-CLT-D202 ADC (humanized anti-CLL1 antibody C6-S239C-CYSMAB, cys-substituted at position 239, conjugated to CLT-D202) (antibody, V domains shown)
VH: EVQLVQSGAEVKKPGASVKMSCKASGYTFTSYFIHWVRQAPGQGLEWIGFINPYNDGSKYAQKFQGRATLTSDKSTSTVYMELSSLRSEDTAVYYCTRDDGYYGYAMDYWGQGTLVTVSS
VL: DIQMTQSPSSLSASVGDRVTLTCRATQELSGYLSWLQQKPGKAIKRLIYAASTLDSGVPSRFSGNRAGTDYTLTISSLQPEDFATYYCLQYAIYPYTFGQGTKLEIK
modifications: CLT-D202 (maleimide linker-drug) on the engineered cysteine at position 239 (S239C) of the heavy chain constant region; drug to antibody ratio 1.7
In the case of B1, the “C6 relative MFI C6/C0” value [1] is reported as 14.7 ratio, the “IC50 ug/mL, cell killing, TF1-CLL1 cells” value [2] is reported as 0.008 µg/mL and the “C6 relative MFI C6/C0” value [3] is reported as 5.8 ratio. The “C6 relative MFI C6/C0” value [4] was 14.7 ratio, the “C6 relative MFI C6/C0” value [5] was 26.1 ratio and the “C6 relative MFI C6/C0” value [6] was 13 ratio. The “C6 relative MFI C6/C0” value [7] was 1.4 ratio, the “C6 relative MFI C6/C0” value [8] was 1.3 ratio and the “C6 relative MFI C6/C0” value [9] was 1.3 ratio. The “IC50, killing of proliferating AML-5 cells” value [10] was 0.03 µg/mL, the “IC50, killing of quiescent AML-5 cells” value [10] was 0.02 µg/mL and the “decrease in IC50 of cell killing, TF1-CLL1 against TF1” value [10] was about 1000 fold. For the same binder, the “target dependent cell killing, HL-60 cells, relative to control C0-CLT-D202 ADC” value [10] was over 500 fold, the “C6 relative MFI C6/C0” value [11] was 20 ratio and the “C6 relative MFI C6/C0” value [12] was 15 ratio. The “C6 relative MFI C6/C0” value [13] was 20.5 ratio, the “C6 relative MFI C6/C0” value [14] was 1.2 ratio and the “IC50 ng/mL, cell killing, AML5 cells” value [15] was 13 ng/mL. The “IC50 ng/mL, cell killing, HEL92.1.7-CLL1 cells” value [15] was 17 ng/mL and the “IC50 ng/mL, cell killing, HL-60 cells” value [15] was 11 ng/mL.
